From article PMC3170320, “Minimal Antizyme Peptide Fully Functioning in the Binding and Inhibition of Ornithine Decarboxylase and Antizyme Inhibitor” (PLoS ONE, 2011)

B1: human antizyme peptide AZ_100-228 (domain or fragment)
chain: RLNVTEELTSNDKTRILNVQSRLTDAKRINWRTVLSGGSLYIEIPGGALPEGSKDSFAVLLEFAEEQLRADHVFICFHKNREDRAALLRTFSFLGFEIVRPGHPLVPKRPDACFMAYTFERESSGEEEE
B2: human antizyme peptide AZ_95-135 (domain or fragment)
chain: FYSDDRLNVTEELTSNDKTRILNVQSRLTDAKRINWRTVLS
B3: human antizyme peptide AZ_87-124 (domain or fragment)
chain: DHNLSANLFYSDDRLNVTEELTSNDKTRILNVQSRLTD
B4: human ornithine decarboxylase, wild type (enzyme, UniProt P11926 1-461, looked up)
chain: MNNFGNEEFDCHFLDEGFTAKDILDQKINEVSSSDDKDAFYVADLGDILKKHLRWLKALPRVTPFYAVKCNDSKAIVKTLAATGTGFDCASKTEIQLVQSLGVPPERIIYANPCKQVSQIKYAANNGVQMMTFDSEVELMKVARAHPKAKLVLRIATDDSKAVCRLSVKFGATLRTSRLLLERAKELNIDVVGVSFHVGSGCTDPETFVQAISDARCVFDMGAEVGFSMYLLDIGGGFPGSEDVKLKFEEITGVINPALDKYFPSDSGVRIIAEPGRYYVASAFTLAVNIIAKKIVLKEQTGSDDEDESSEQTFMYYVNDGVYGSFNCILYDHAHVKPLLQKRPKPDEKYYSSSIWGPTCDGLDRIVERCDLPEMHVGDWMLFENMGAYTVAAASTFNGFQRPTIYYVMSGPAWQLMQQFQNPDFPPEVEEQDASTLPVSCAWESGMKRHRAACASASINV
notes: ornithine decarboxylase (ODC, EC 4.1.1.17), human, wild type; Kd was fitted with an A+B to AB model; also called ODC
B5: human antizyme peptide AZ_100-176 (domain or fragment)
chain: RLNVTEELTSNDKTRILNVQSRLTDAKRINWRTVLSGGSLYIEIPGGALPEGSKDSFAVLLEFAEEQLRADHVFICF
B6: human antizyme peptide AZ_95-176 (domain or fragment)
chain: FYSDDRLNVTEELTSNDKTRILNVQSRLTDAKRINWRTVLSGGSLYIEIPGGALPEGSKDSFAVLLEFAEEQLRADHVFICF
B7: human antizyme, wild type (natural protein)
chain: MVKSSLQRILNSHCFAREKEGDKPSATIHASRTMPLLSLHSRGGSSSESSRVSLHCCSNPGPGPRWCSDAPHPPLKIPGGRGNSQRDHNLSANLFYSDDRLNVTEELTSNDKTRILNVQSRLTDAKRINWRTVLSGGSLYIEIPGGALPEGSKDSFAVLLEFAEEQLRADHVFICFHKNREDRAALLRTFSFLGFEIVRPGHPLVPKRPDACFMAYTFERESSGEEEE
B8: human antizyme peptide AZ_95-124 (domain or fragment)
chain: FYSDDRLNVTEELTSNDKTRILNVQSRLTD
B9: human antizyme peptide AZ_95-228 (domain or fragment)
chain: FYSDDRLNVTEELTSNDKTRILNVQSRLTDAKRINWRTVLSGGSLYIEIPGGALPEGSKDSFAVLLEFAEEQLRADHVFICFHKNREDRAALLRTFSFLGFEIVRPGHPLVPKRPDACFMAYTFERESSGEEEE

Experiments:
[1] = molecular target: B4; experiment: AUC; sedimentation velocity, 42,000 rpm, 20°C; ODC fixed at 0.3 mg/mL, AZ or AZ peptide 0.015 to 0.2 mg/mL (molar ratio AZ/ODC 0.12 to 2); 30 mM Tris-HCl pH 7.4, 25 mM NaCl; global fit to the A+B to AB hetero-association model in SEDPHAT; conditions: both partners purified
[2] = molecular target: T1, human antizyme inhibitor, wild type (human, UniProt O14977 1-448); experiment: AUC; sedimentation velocity, 20°C; AZI fixed at 0.3 mg/mL, AZ or AZ peptide 0.05 to 0.24 mg/mL (molar ratio AZ/AZI 0.4 to 2.4); 30 mM Tris-HCl pH 7.4, 25 mM NaCl; global fit to the A+B to AB hetero-association model in SEDPHAT; conditions: both partners purified
T1 construct: also called AZI
T1 sequence (looked up): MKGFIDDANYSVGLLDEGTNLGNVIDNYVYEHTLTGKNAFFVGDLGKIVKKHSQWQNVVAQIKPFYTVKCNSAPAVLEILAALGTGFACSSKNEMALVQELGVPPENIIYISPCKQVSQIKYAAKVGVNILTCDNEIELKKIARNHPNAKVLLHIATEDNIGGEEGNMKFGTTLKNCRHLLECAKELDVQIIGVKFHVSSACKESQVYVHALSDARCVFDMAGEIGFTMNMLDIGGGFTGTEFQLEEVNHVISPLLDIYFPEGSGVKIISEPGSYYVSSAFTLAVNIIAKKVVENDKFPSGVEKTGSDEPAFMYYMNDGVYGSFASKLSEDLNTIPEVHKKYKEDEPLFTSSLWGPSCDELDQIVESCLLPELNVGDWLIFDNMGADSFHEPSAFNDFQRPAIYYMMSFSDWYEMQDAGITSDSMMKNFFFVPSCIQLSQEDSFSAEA

[3] = molecular target: B4; experiment: cell-based or functional assay
[4] = molecular target: T1, human antizyme inhibitor, wild type; experiment: cell-based or functional assay
[5] = molecular target: the molecule itself; experiment: AUC; sedimentation velocity, 42,000 rpm, 20°C; ODC fixed at 0.3 mg/mL, AZ or AZ peptide 0.015 to 0.2 mg/mL (molar ratio AZ/ODC 0.12 to 2); 30 mM Tris-HCl pH 7.4, 25 mM NaCl; global fit to the A+B to AB hetero-association model in SEDPHAT

Binder: B1
- Kd [1]: 5300 ± 30 nM
- Kd [2]: 68 ± 0.7 nM
- IC50 of inhibition of ODC enzyme activity (ODC 0.19 µM), without AZI [3]: 210 nM
- IC50 of inhibition of ODC enzyme activity with ODC pre-incubated with equimolar AZI (m1 as the enzyme) [4]: 620 nM

Binder: B2
- Kd [1]: 10300 ± 70 nM
- IC50 of inhibition of ODC enzyme activity (ODC 0.19 µM), without AZI [3]: 510 nM
- IC50 of inhibition of ODC enzyme activity with ODC pre-incubated with equimolar AZI (m1 as the enzyme) [4]: 1590 nM

Binder: B3
- Kd [1]: 12700 ± 280 nM
- Kd [2]: 160 ± 1 nM
- IC50 of inhibition of ODC enzyme activity (ODC 0.19 µM), without AZI [3]: 520 nM
- IC50 of inhibition of ODC enzyme activity with ODC pre-incubated with equimolar AZI (m1 as the enzyme) [4]: 1550 nM

Binder: B4
- binding result [5]: binds

Binder: B5
- Kd [1]: 10800 ± 70 nM
- IC50 of inhibition of ODC enzyme activity (ODC 0.19 µM), without AZI [3]: 430 nM
- IC50 of inhibition of ODC enzyme activity with ODC pre-incubated with equimolar AZI (m1 as the enzyme) [4]: 1420 nM

Binder: B6
- Kd [1]: 5600 ± 40 nM
- Kd [2]: 60 ± 4 nM
- IC50 of inhibition of ODC enzyme activity (ODC 0.19 µM), without AZI [3]: 200 nM
- IC50 of inhibition of ODC enzyme activity with ODC pre-incubated with equimolar AZI (m1 as the enzyme) [4]: 680 nM

Binder: B7
- Kd [1]: 710 ± 5 nM
- Kd [2]: 27 ± 0.1 nM
- IC50 of inhibition of ODC enzyme activity (ODC 0.19 µM), without AZI [3]: 160 nM
- IC50 of inhibition of ODC enzyme activity with ODC pre-incubated with equimolar AZI (m1 as the enzyme) [4]: 500 nM

Binder: B8
- Kd [1]: 18600 ± 130 nM
- Kd [2]: 280 ± 2 nM
- IC50 of inhibition of ODC enzyme activity (ODC 0.19 µM), without AZI [3]: 650 nM
- IC50 of inhibition of ODC enzyme activity with ODC pre-incubated with equimolar AZI (m1 as the enzyme) [4]: 1980 nM

Binder: B9
- Kd [1]: 1500 ± 10 nM
- Kd [2]: 24 ± 0.2 nM
- IC50 of inhibition of ODC enzyme activity (ODC 0.19 µM), without AZI [3]: 160 nM
- IC50 of inhibition of ODC enzyme activity with ODC pre-incubated with equimolar AZI (m1 as the enzyme) [4]: 570 nM
